What was measured:
hIR = hIR (Homo sapiens, UniProt P06213); assay: hIR activation / insulin signaling activation; assay type: cell-based
[1] = known property of shortened human insulin; cited from earlier work

Substance: quadruple DOI mutant: DOI with A8 His, A9 Arg, B10 Glu, B20 Tyr; SEQ ID NO: 12 and SEQ ID NO: 3
- potency for hIR activation compared with human insulin (hIR; FIG. 7): comparable to that of human insulin

Substance: Des-octapeptide (B23-30) human insulin [DOI]
- oligomeric state [1]: monomeric
- hIR activation activity compared with enzymatically synthetic DOI (hIR): same
- potency, fold weaker than human insulin (hIR; relative to human insulin): 1,000 fold
